What was measured:
Format in all cases: cell-based, human
[1] = test system: wild-type and variant SNAP-GIPR; assay: Surface SNAP-GIPR expression (SNAP-tag labelling) in INS-1 cells; details: Fig 4G; Mean
Outline: (§1)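 Surface GIPR is quantified from wide-field images after labelling intact transfected cells with a membrane-impermeant SNAP probe at 500 nM for 10 min at room temperature. Specific signal, corrected for nontransfected cells, is normalized to the experiment-wide average or to wild-type.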

[2] = test system: wild-type and variant SNAP-GIPR; assay: Single-concentration GIP cAMP response by HTRF in AD293 cells; details: Fig S3F, HTRF, mean;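 note: ratio to experiment-wide average response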
Experimental: (§2) All variants were tested in parallel on each occasion to control for transfection efficiency differences between experiments.

[3] = test system: wild-type and variant SNAP-GIPR; assay: cADDis cAMP imaging in AD293 cells, ensemble, expression-matched and per decile; details: Fig S3F, cADDis, mean;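 note: Ensemble cells as % of IBMX/FSK response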
Outline: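 Variants and wild type ran in parallel in transfected AD293 cells carrying cADDis. Single-cell sensor intensity, with nonresponders to IBMX/FSK removed, was paired with SNAP-Surface 647 labeling to allow expression-matched analysis.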

[4] = test system: wild-type and variant SNAP-GIPR; assay: Single-concentration GIP cAMP response by HTRF in INS-1 cells; details: Fig S3E, mean
Experimental: as §2

[5] = test system: wild-type and variant SNAP-GIPR; assay: Surface SNAP-GIPR expression (SNAP-tag labelling) in AD293 cells; details: for AD293 Surface: Fig S3E, mean; for Surface SNAP-GIPR expression: sheet Fig 1C;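 for all read-outs here: scaled to the experimental average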
Outline: as §1

[6] = test system: wild-type and variant SNAP-GIPR; assay: Constitutive and agonist-mediated internalization, reversible SNAP-tag labelling, INS-1 cells; set-up: key to Internalisation, GIP-only / Internalisation, Vehicle / Internalisation, +GIP: % internalization: residual fluorescence after Mesna vs pre-Mesna; details: Mean
Outline: (§3)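 Surface SNAP-GIPR signal removable by Mesna was tracked by imaging before and 10 min after treatment in pH 8.6 TNE buffer. Internalization is the Mesna-resistant share of specific fluorescence.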

[7] = test system: wild-type and variant SNAP-GIPR; assay: Constitutive and agonist-mediated internalization, reversible SNAP-tag labelling, AD293 cells; set-up: key to Internalisation, Vehicle / Internalisation, +GIP / Internalisation, GIP-only: % internalization: residual fluorescence after Mesna vs pre-Mesna; Surface expression: unit not given here; details: Mean
Outline: as §3

B1: L262V (protein, UniProt P48546 22-466, looked up, variant L262V)
Gastric inhibitory …: RAETGSKGQTAGELYQRWERYRRECQETLAAAEPPSGLACNGSFDMYVCWDYAAPNATARASCPWYLPWHHHVAAGFVLRQCGSDGQWGLWRDHTQCENPEKNEAFLDQRLILERLQVMYTVGYSLSLATLLLALLILSLFRRLHCTRNYIHINLFTSFMLRAAAILSRDRLLPRPGPYLGDQALALWNQALAACRTAQIVTQYCVGANYTWLLVEGVYLHSLLVLVGGSEEGHFRYYLLVGWGAPALFVIPWVIVRYLYENTQCWERNEVKAIWWIIRTPILMTILINFLIFIRILGILLSKLRTRQMRCRDYRLRLARSTLTLVPLLGVHEVVFAPVTEEQARGALRFAKLGFEIFLSSFQGFLVSVLYCFINKEVQSEIRRGWHHCRLRRSLGEEQRQLPERAFRALPSGSGPGEVPTSRGLSSGTLPGPGNEASRELESYC
- Surface expression [1]: 1.205
- AD293 100 pM HTRF ([2]; AD293, 100 pM): 1.19
- AD293 100 nM HTRF ([2]; AD293, 100 nM): 1.331
- AD293 100 pM cADDis ([3]; AD293, 100 pM): 31.1728
- AD293 100 nM cADDis ([3]; AD293, 100 nM): 39.27
- INS-1 cAMP (100 nM) [4]: 1.234
- AD293 Surface ([5]; column repeated, paired with cAMP 100 nM): 1.3
- AD293 Surface ([5]; paired with cAMP 100 pM): 1.3
- Surface SNAP-GIPR expression ([5]; replicate 1): 1.375
- Surface SNAP-GIPR expression ([5]; replicate 2): 0.996
- Surface SNAP-GIPR expression ([5]; replicate 3): 2.76
- Surface SNAP-GIPR expression ([5]; replicate 4): 0.9875
- Surface SNAP-GIPR expression ([5]; replicate 5): 1.257
- Surface SNAP-GIPR expression ([5]; replicate 6): 2.431
- Surface SNAP-GIPR expression ([5]; replicate 7): 1.521
- Surface SNAP-GIPR expression ([5]; replicate 8): 0.9638
- Surface SNAP-GIPR expression ([5]; replicate 9): 1.328
- Surface SNAP-GIPR expression ([5]; replicate 10): 1.382
- Surface SNAP-GIPR expression ([5]; replicate 11): 1.153
- Surface SNAP-GIPR expression ([5]; replicate 12): 1.188
- Surface SNAP-GIPR expression ([5]; replicate 13): 1.165
- Surface SNAP-GIPR expression ([5]; replicate 14): 1.166
- Surface SNAP-GIPR expression ([5]; replicate 15): 1.23
- Surface SNAP-GIPR expression ([5]; replicate 16): 1.047
- Surface SNAP-GIPR expression ([5]; replicate 17): 1.27
- Surface SNAP-GIPR expression ([5]; replicate 18): 1.238
- Surface SNAP-GIPR expression ([5]; replicate 19): 0.9807
- Surface SNAP-GIPR expression ([5]; replicate 20): 0.8682
- Surface SNAP-GIPR expression ([5]; replicate 21): 1.136
- Surface SNAP-GIPR expression ([5]; replicate 22): 1.402
- Surface SNAP-GIPR expression ([5]; replicate 23): 1.295
- Surface SNAP-GIPR expression ([5]; replicate 24): 1.372
- Surface SNAP-GIPR expression ([5]; replicate 25): 1.308
- Surface SNAP-GIPR expression ([5]; replicate 26): 1.104
- Surface SNAP-GIPR expression ([5]; replicate 27): 1.5
- Surface SNAP-GIPR expression ([5]; replicate 28): 1.095
- Surface SNAP-GIPR expression ([5]; replicate 29): 1.555
- Surface SNAP-GIPR expression ([5]; replicate 30): 1.424
- Surface SNAP-GIPR expression ([5]; replicate 31): 1.568
- Surface SNAP-GIPR expression ([5]; replicate 32): 1.239
- Surface SNAP-GIPR expression ([5]; replicate 33): 1.116
- Surface SNAP-GIPR expression ([5]; replicate 34): 1.325
- Surface SNAP-GIPR expression ([5]; replicate 35): 1.446
- Surface SNAP-GIPR expression ([5]; replicate 36): 1.136
- Surface SNAP-GIPR expression ([5]; replicate 37): 0.8646
- Surface SNAP-GIPR expression ([5]; replicate 38): 1.251
- Surface SNAP-GIPR expression ([5]; replicate 39): 1.117
- Surface SNAP-GIPR expression ([5]; replicate 40): 1.314
- Surface SNAP-GIPR expression ([5]; replicate 41): 1.425
- +GIP internalisation (100 nM) ([6]; Fig 4G, GIP 100 nM): 0.5955
- GIP-specific internalisation (100 nM) ([6]; Fig 4G, GIP 100 nM): 0.1388
- Constitutive internalisation (100 nM) ([6]; Fig 4G): 0.4567
- Internalisation, +GIP ([6]; Fig S4C, INS-1): 50.3417
- Internalisation, GIP-only ([6]; Fig S4C, INS-1): 11.92
- Internalisation, Vehicle ([6]; Fig S4C, INS-1): 38.4217
- +GIP internalisation (100 nM) ([7]; Fig 4E, GIP 100 nM): 0.6926
- GIP-specific internalisation (100 nM) ([7]; Fig 4E, GIP 100 nM): 0.1787
- Constitutive internalisation (100 nM) ([7]; Fig 4E): 0.5139
- Surface expression ([7]; Fig 4E): 1.204
- Internalisation, +GIP ([7]; Fig S4C, AD293): 57.508
- Internalisation, GIP-only ([7]; Fig S4C, AD293): 14.8294
- Internalisation, Vehicle ([7]; Fig S4C, AD293): 42.6786

Reference: article PMC13544220, “Glycemic and bodyweight effects of GIPR coding variation reflect differences in surface expression and intrinsic functional impairment” (Science Advances, 2026)
